According to paper doi:10.1101/2021.11.23.469727 (bioRxiv, 2021):
Changes are numbered by the printed parent chain.

T1: Halo:atml1ΔST (Arabidopsis thaliana, UniProt Q8RWU4 1-253+483-762, internal_change)
T1 sequence: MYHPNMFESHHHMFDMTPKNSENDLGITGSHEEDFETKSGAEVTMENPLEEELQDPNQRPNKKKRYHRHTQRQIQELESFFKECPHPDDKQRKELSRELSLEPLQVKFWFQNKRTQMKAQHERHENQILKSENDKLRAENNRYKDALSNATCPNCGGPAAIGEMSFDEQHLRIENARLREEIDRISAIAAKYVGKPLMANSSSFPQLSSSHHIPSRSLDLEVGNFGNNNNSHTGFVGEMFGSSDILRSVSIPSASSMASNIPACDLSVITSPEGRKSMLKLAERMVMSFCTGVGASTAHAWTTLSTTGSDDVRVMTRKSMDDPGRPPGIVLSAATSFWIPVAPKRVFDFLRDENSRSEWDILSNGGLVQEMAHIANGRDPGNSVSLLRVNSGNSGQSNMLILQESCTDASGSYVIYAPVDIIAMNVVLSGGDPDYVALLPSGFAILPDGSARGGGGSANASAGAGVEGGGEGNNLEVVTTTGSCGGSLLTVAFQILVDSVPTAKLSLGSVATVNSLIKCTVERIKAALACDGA

T2: Halo:pdf2ΔST (Arabidopsis thaliana, UniProt Q93V99 1-244+475-743, internal_change)
T2 sequence: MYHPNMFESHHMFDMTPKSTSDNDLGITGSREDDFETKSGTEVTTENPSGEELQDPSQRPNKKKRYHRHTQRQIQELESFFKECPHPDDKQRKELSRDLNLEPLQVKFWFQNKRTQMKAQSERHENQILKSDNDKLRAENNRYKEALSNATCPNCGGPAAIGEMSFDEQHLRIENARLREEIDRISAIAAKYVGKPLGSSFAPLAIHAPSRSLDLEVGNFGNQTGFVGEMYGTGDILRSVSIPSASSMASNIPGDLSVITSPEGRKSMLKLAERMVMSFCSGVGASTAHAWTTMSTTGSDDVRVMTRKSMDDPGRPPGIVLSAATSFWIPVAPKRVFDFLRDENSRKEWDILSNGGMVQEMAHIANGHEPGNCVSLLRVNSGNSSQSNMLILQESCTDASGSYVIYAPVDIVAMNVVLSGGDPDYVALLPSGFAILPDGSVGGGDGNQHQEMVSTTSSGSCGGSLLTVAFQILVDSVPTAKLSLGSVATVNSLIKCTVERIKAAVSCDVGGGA

T3: Halo:PDF2 (Arabidopsis thaliana, UniProt Q93V99 1-743)
T3 sequence: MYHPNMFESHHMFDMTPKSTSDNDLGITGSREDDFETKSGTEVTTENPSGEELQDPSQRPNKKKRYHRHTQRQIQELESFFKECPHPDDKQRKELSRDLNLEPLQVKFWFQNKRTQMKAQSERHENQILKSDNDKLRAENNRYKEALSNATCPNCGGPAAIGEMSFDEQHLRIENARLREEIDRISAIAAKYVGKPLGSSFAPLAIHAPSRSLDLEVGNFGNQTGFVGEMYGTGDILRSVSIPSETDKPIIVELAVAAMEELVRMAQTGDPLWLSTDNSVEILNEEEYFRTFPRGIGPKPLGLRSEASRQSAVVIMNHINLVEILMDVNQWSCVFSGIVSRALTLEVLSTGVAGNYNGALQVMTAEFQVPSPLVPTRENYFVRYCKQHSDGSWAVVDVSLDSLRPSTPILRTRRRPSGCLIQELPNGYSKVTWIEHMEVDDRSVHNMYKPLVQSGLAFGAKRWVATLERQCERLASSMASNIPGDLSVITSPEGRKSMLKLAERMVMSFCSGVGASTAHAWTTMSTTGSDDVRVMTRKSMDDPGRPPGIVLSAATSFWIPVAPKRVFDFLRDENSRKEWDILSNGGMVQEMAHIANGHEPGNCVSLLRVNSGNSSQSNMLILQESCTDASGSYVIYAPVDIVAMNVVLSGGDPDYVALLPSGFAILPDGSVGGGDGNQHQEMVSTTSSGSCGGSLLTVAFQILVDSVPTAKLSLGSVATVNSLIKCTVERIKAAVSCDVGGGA

T4: Halo:ATML1 (Arabidopsis thaliana, UniProt Q8RWU4 1-762)
T4 sequence: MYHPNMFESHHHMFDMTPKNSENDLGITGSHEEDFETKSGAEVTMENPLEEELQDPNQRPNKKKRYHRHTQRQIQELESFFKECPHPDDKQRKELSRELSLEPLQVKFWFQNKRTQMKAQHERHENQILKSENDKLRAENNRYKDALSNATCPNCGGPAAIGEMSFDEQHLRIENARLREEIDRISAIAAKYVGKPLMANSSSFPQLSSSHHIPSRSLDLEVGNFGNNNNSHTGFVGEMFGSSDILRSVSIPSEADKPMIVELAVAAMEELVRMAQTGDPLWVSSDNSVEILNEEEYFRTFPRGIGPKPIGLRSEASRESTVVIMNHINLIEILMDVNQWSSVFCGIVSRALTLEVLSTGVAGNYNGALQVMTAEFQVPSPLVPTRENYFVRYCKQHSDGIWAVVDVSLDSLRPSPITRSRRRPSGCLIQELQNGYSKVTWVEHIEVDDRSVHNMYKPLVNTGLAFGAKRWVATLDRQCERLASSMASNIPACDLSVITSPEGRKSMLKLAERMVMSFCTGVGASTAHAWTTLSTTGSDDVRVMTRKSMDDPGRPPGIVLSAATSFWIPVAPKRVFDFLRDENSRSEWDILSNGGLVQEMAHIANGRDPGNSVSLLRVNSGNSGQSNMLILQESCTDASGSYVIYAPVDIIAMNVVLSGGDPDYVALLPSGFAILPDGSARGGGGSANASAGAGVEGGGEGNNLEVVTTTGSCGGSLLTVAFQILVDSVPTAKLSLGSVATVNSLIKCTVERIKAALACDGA

T5: Halo:pdf2K107E (Arabidopsis thaliana, UniProt Q93V99 1-743, K107E)
T5 sequence: T3 sequence with K107E

B1: ATML1 (Arabidopsis thaliana MERISTEM LAYER1), wild type, protein of the EMSA (natural protein, UniProt Q8RWU4 1-762, looked up)
chain: T4 sequence
B2: Halo:PDF2 (PROTODERMAL FACTOR2, full length, Halo-tagged) (natural protein, Arabidopsis thaliana, UniProt Q93V99 1-743, looked up)
chain: T3 sequence
B3: L1-box probe (3x L1 motif) (dsDNA)
DNA 1: GGGTACATTTATACATTTATACATTTAAAT
DNA 2: ATTTAAATGTATAAATGTATAAATGTACCC

What was measured:
native gel or EMSA = target: the molecule itself; assay: native gel or EMSA
Halo:atml1ΔST = target: T1, Halo:atml1ΔST; assay: EMSA
Halo:pdf2ΔST = target: T2, Halo:pdf2ΔST; assay: EMSA
Halo:PDF2 = target: T3, Halo:PDF2; assay: EMSA
Halo:ATML1 = target: T4, Halo:ATML1; assay: EMSA
Halo:pdf2K107E = target: T5, Halo:pdf2K107E; assay: EMSA

| Binder | stoichiometry N (native gel or EMSA) | binding result (Halo:atml1ΔST) | binding result (Halo:pdf2ΔST) | binding result (Halo:PDF2) | binding result (Halo:ATML1) | binding result (Halo:pdf2K107E) |
| --- | --- | --- | --- | --- | --- | --- |
| B1 | 2 |  |  |  |  |  |
| B2 | 2 |  |  |  |  |  |
| B3 |  | binds | binds | binds | binds | no binding |
